Source: patent US20240102021A1

Target: MC1R (endogenous, MNT-1 cells) (human) (UniProt Q01726)
Assay: cell-based or functional assay

UniProt Q01726, sequence (Q01726 whole entry): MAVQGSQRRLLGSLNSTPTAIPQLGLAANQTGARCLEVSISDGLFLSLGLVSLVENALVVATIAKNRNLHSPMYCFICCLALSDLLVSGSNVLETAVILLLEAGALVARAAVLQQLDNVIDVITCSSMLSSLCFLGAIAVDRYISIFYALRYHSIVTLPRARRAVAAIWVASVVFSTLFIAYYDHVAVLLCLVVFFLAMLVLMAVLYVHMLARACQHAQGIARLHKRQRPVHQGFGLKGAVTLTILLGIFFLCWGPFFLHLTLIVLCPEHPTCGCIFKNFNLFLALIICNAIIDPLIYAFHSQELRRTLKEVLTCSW

Substance | increase in cellular cAMP (Epac H187 FRET ratio CFP/YFP, normalized to FSK+IBMX), control MCh-expressing MNT-1 cells [%] | increase in cellular cAMP on αMSH stimulation (Epac H187 FRET, normalized to FSK+IBMX), MNT-1 cells expressing OPN3-MCh [%]
NDP-αMSH (peptide) | 50 | –
OPN3-cMCh (from UniProt Q9H1Y3 1-402) (receptor) | – | 10
